In article PMC11555231, “A cyclic peptide toolkit reveals mechanistic principles of peptidylarginine deiminase IV regulation” (Nature Communications, 2024):
Bridge positions count the residues as written; N and C are the ends. Square brackets hold non-standard residues; d marks the D form.

B1: PADI4_1 (peptide)
peptide: YFYRIGFWYPNYQCG
modifications: not fully specified; D-tyrosine at position 1; cyclised via a thioether bond between the N-terminus (chloroacetylated) and the cysteine side chain (Cys14, from the letters); C-terminal amide
notes: cyclic peptide from RaPID selection 1 (10 mM CaCl2); also called PAD4_1; source: synthetic peptide (Fmoc solid-phase synthesis, HPLC purified)
B2: PADI4_3i (peptide)
chain: YDRHHYRHPKYCG
modifications: not fully specified; D-tyrosine at position 1; acetylated N-terminus joined by a thioether bond to the side chain of Cys12 (cyclic); C-terminal amide
B3: PADI4_7 (peptide)
peptide: YYPKGSWGYKLFCG
modifications: not fully specified; D-tyrosine at position 1; cyclised via a thioether bond between the N-terminus (chloroacetylated) and the cysteine side chain (Cys13, from the letters); C-terminal amide
notes: cyclic peptide from RaPID selection 2 (0 mM CaCl2); also called PAD4_7; source: synthetic peptide (Fmoc solid-phase synthesis, HPLC purified)
B4: PADI4_9 (peptide)
peptide: YAQWYIWVLLCG
modifications: not fully specified; D-tyrosine at position 1; cyclised via a thioether bond between the N-terminus (chloroacetylated) and the cysteine side chain (Cys11, from the letters); C-terminal amide
notes: cyclic peptide from RaPID selection 2 (0 mM CaCl2); source: synthetic peptide (Fmoc solid-phase synthesis, HPLC purified)
B5: PADI4_10 (peptide)
peptide: YPWEISVWLLYCG
modifications: not fully specified; D-tyrosine at position 1; cyclised via a thioether bond between the N-terminus (chloroacetylated) and the cysteine side chain (Cys12, from the letters); C-terminal amide
notes: as for B4
B6: PADI4_3 (peptide)
peptide: {CH2CO}-[dY]RDHHYRHPKYCG-NH2
modifications: thioether N-12
notes: cyclic peptide from RaPID selection 1 (10 mM CaCl2); source: synthetic peptide (Fmoc solid-phase synthesis, HPLC purified)
B7: PADI4_2 (peptide)
peptide: YRDHRSPFDGYCG
modifications: not fully specified; D-tyrosine at position 1; cyclised via a thioether bond between the N-terminus (chloroacetylated) and the cysteine side chain (Cys12, from the letters); C-terminal amide
B8: PADI4_3_R2Cit (peptide)
chain: YRDHHYRHPKYCG
modifications: citrulline at position 2; else as PADI4_3: D-tyrosine at position 1; thioether cyclisation between the N-terminus and the cysteine side chain; C-terminal amide

How the values were obtained:
[1] = target: T1, N-terminally biotinylated recombinant human PADI4 (bio-His-PADI4) (human, UniProt Q9UM07 1-663, biotin on the N-terminal Avi-Tag (BirA)); experiment: SPR; as a1 but 0 mM CaCl2 (calcium-free running buffer); Bio-His-PADI4 captured, peptide as analyte; 25 °C; 1:1 binding model; conditions: both partners purified
T1 construct: human peptidylarginine deiminase IV (PADI4), residues 1-663; (vector p28BIOH-LIC, Addgene plasmid 62352); also called Bio-hPADI4 wt; PADI4_WT; source: E. coli BL21-DE3 co-expressing biotin ligase (BirA), purified (Ni-NTA, S200 SEC); not shown: Avi-Tag (biotinylated), N-terminal, kept; His6, N-terminal, kept

[2] = target: T2, bio-His-PADI4 with the active site covalently blocked by Cl-amidine (human, UniProt Q9UM07 1-663, biotin on the N-terminal Avi-Tag (BirA); active site covalently blocked with Cl-amidine (residue not stated)); experiment: SPR; as a1 with 10 mM CaCl2 and the PADI4 active site blocked with Cl-amidine; Bio-His-PADI4 captured, peptide as analyte; 25 °C; 1:1 binding model; conditions: both partners purified
T2 construct: human peptidylarginine deiminase IV (PADI4), residues 1-663; Same protein as m1; also called 10 mM CaCl2 + Cl-amidine; source: E. coli BL21-DE3 co-expressing biotin ligase (BirA), purified (Ni-NTA, S200 SEC); treated with Cl-amidine; not shown: Avi-Tag (biotinylated), N-terminal, kept; His6, N-terminal, kept

[3] = target: T1, N-terminally biotinylated recombinant …; experiment: SPR; single cycle kinetics, Biacore T200 or S200; Bio-His-PADI4 captured on a Biotin CAPture chip (~2000 RU), peptide as analyte; 50 mM HEPES pH 7.5, 150 mM NaCl, 2 mM DTT, 0.05% Tween-20, 0.1% DMSO, 10 mM CaCl2; 25 °C; 1:1 binding model; conditions: both partners purified
[4] = target: T3, N-terminally biotinylated human PADI4 (bio-His-PADI4) (human, UniProt Q9UM07 1-663, G55S (read from the plasmid's DNA at D1:p46, codon AGC)); not stated by the …, biotin on the Avi-Tag (BirA)); experiment: SPR; single cycle kinetics; Bio-His-PADI4 captured on a Biotin CAPture chip, peptide as analyte; 25 °C; 50 mM HEPES pH 7.5, 150 mM NaCl, 2 mM DTT, 0.05% Tween-20, 0.1% DMSO; CaCl2 concentration not stated for these data; 1:1 binding model; conditions: both partners purified
T3 construct: human PADI4, residues 1-663, cloned into p28BIOH-LIC; The COLDER assays used His-PADI4 from the same plasmid made without BirA (not biotinylated); also called Bio-hPADI4 wt; Avi-His-PADI4; source: E. coli BL21-DE3 co-expressing biotin ligase (BirA), purified (Ni-NTA, S200 size exclusion); not shown: Avi-Tag, N-terminal, kept; His6, N-terminal, kept

[5] = target: human PADI4 stably expressed in E14 mouse embryonic stem cells (hPADI4-stable) (human, UniProt Q9UM07 1-663); experiment: cell-based or functional assay
[6] = target: T4, PADI4_D165A (human, UniProt Q9UM07 1-663, D165A); experiment: SPR; single cycle kinetics; biotinylated PADI4 (wild type or single-residue variant) captured on a Biotin CAPture chip, peptide or peptide analogue as analyte; 50 mM HEPES pH 7.5, 150 mM NaCl, 2 mM DTT, 0.05% Tween-20, 0.1% DMSO; 25 °C; CaCl2 concentration not told for these runs; conditions: both partners purified
T4 construct: human PADI4, residues 1-663, single substitution made by mutagenesis of the plasmid; source: E. coli BL21-DE3, purified (Ni-NTA, S200 SEC), as told for the wild type

[7] = target: T5, PADI4_C166F (human, UniProt Q9UM07 1-663, C166F); experiment: as above; conditions: both partners purified
T5 construct: source: E. coli BL21-DE3, purified (Ni-NTA, S200 SEC), as told for the wild type

[8] = target: T6, PADI4_E167A (human, UniProt Q9UM07 1-663, E167A); experiment: as above; conditions: both partners purified
T6 construct: human PADI4, residues 1-663, single substitution; source: E. coli BL21-DE3, purified (Ni-NTA, S200 SEC), as told for the wild type

[9] = target: T7, PADI4_D168A (human, UniProt Q9UM07 1-663, D168A); experiment: as above; conditions: both partners purified
T7 construct: human PADI4, residues 1-663, single substitution; source: E. coli BL21-DE3, purified (Ni-NTA, S200 SEC), as told for the wild type

[10] = target: T8, PADI4_N373A (human, UniProt Q9UM07 1-663, N373A); experiment: as above; conditions: both partners purified
T8 construct: human PADI4, residues 1-663, single substitution; source: E. coli BL21-DE3, purified (Ni-NTA, S200 SEC), as told for the wild type

[11] = target: T9, PADI4_R394A (human, UniProt Q9UM07 1-663, R394A); experiment: as above; conditions: both partners purified
T9 construct: human PADI4, residues 1-663, single substitution; source: E. coli BL21-DE3, purified (Ni-NTA, S200 SEC), as told for the wild type

[12] = target: His-tagged recombinant human PADI4 (His-PADI4) (human, UniProt Q9UM07 1-663); experiment: cell-based or functional assay
[13] = target: T1, N-terminally biotinylated recombinant …; experiment: SPR; single cycle kinetics; biotinylated PADI4 (wild type or single-residue variant) captured on a Biotin CAPture chip, peptide or peptide analogue as analyte; 50 mM HEPES pH 7.5, 150 mM NaCl, 2 mM DTT, 0.05% Tween-20, 0.1% DMSO; 25 °C; CaCl2 concentration not told for these runs; conditions: both partners purified

T2 sequence (Q9UM07 whole entry, the tested form may be a part): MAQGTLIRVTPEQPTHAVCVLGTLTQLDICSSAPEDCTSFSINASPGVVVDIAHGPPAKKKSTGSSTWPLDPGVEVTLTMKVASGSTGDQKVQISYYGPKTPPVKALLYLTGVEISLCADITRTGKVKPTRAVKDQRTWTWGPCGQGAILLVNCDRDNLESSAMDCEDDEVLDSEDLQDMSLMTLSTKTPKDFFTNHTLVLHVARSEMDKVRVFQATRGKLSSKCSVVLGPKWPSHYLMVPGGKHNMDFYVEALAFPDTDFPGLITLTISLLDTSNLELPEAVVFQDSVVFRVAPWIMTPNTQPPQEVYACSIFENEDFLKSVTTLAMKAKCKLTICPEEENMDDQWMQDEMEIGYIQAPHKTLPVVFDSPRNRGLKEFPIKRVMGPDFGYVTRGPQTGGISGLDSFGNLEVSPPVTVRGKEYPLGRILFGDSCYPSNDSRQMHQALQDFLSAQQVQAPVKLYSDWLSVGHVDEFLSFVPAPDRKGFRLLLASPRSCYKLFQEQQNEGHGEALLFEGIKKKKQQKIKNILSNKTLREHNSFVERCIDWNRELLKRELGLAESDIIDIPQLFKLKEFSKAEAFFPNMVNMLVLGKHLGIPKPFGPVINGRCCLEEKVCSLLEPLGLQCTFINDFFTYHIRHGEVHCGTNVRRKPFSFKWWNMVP
T1 sequence (Q9UM07 whole entry, the tested form may be a part): as above
His-tagged recombinant human PADI4 (His-PADI4), sequence (Q9UM07 whole entry): as the sequence (Q9UM07 whole entry, the tested form may be a part) above
T6 sequence (Q9UM07 whole entry E167A, the tested form may be a part): as the sequence (Q9UM07 whole entry, the tested form may be a part) above, with E167A counted along it
T9 sequence (Q9UM07 whole entry R394A, the tested form may be a part): as the sequence (Q9UM07 whole entry, the tested form may be a part) above, with R394A counted along it
human PADI4 stably expressed in E14 mouse embryonic stem cells (hPADI4-stable), sequence (Q9UM07 whole entry): as the sequence (Q9UM07 whole entry, the tested form may be a part) above
T4 sequence (Q9UM07 whole entry D165A, the tested form may be a part): as the sequence (Q9UM07 whole entry, the tested form may be a part) above, with D165A counted along it
T8 sequence (Q9UM07 whole entry N373A, the tested form may be a part): as the sequence (Q9UM07 whole entry, the tested form may be a part) above, with N373A counted along it
T3 sequence (Q9UM07 whole entry G55S/V82A/G112A, the tested form may be a part): as the sequence (Q9UM07 whole entry, the tested form may be a part) above, with G55S, V82A, G112A counted along it
T5 sequence (Q9UM07 whole entry C166F): as the sequence (Q9UM07 whole entry, the tested form may be a part) above, with C166F counted along it
T7 sequence (Q9UM07 whole entry D168A, the tested form may be a part): as the sequence (Q9UM07 whole entry, the tested form may be a part) above, with D168A counted along it

Binder	Kd [1]	Kd [2]	Kd [3]	also measured
B1	105 nM	727 nM	205 nM	
B2				Kd [4]: > 10000 nM
B3	8 nM	36 nM	39 nM	
B4	> 2000 nM	> 2000 nM	> 2000 nM	
B5	> 2000 nM	> 2000 nM	> 2000 nM	
B6				EC50 of inhibition of H3 citrullination in hPADI4-stable mES cells stimulated with KSR/2i for 3 h (high-content imaging) [5]: 200 nM; Kd [6]: 61 nM; Kd [7]: 3 nM; Kd [8]: 7 nM; Kd [9]: 20 nM; Kd [10]: 83 nM; Kd [11]: 8 nM
B7				IC50 of inhibition of PADI4 activity (COLDER assay, substrate BAEE, 10 mM CaCl2, 50 nM PADI4) [12]: 209 nM
B8				IC50 of inhibition of PADI4 activity (COLDER assay) [12]: 1100 nM; Kd [13]: 20 nM
